Residue numbers refer to the chain shown, from its start. Names and notes keep the numbering of the source.
B1: MttB (Methanosarcina barkeri; C-TERMINAL/CHANGE/GGHHHHHH/IS/NO/TAG) (protein)
chain: MAKNNAVAGFNALNGVELNLFTTDELKAIHYATMEVLMDPGIQVSDPEARQIFKENGCEVNEKTNVVKIPEYLVRKALQLAPSRFVLWGRDKKFNTVQECGGKVHWTCFGTGVKVCKYQDGKYVTVDSVEKDIADIAKLCDWAENIDYFSLPVSARDIAGQGAQDVHETLTPLANTAKHFHHIDPVGENVEYYRDIVKAYYGGDEEEARKKPIFSMLLCPTSPLELSVNACQVIIKGARFGIPVNVLSMAMSGGSSPVYLAGTLVTHNAEVLSGIVLAQLTVPGAKVWYGSSTTTFDLKKGTAPVGSPELGLISAAVAKLAQFYGLPSYVAGSOSDAKVPDDQAGHEKTMTTLLPALAGANTIYGAGMLELGMTFSMEQLVIDNDIFSMVKKAMQGIPVSEETLAVESIQKVGIGNNFLALKQTRQLVDYPSNPMLLDRHMFGDWAAAGSKDLATVAHEKVEDVLKNHQVTPIDADIFKDMQAIVDKADKAFRGM
notes: full length with C-terminal GGHHHHHH tag, contains pyrrolysine at 334 (amber codon); expressed in Methanosarcina acetivorans C2A; D3 homohexamer (trimer of dimers)
B2: MttB (Methanosarcina barkeri; Y364F) (protein)
chain: B1 chain with Y364F
notes: as for B1
B3: Methanosarcina barkeri trimethylamine methyltransferase MttB (enzyme, Methanosarcina barkeri MS, UniProt O93658 1-495, looked up)
chain: B1 chain
modifications: pyrrolysine at 334 (Pyl334)
notes: Trimethylamine methyltransferase MttB, product of the mttB1 gene amplified from M. barkeri MS genomic DNA; the in-frame amber codon is read as pyrrolysine (Pyl334); residues 2-495 are described in the structure; D3-symmetric homo-hexamer (trimer of dimers) in the crystals; No step that removes the tag is described; The PDB ids are printed in two ways (7XCL/7XCM in the methods, 7LCL/7LCM in the …)
B4: Methanosarcina barkeri trimethylamine corrinoid protein MttC (natural protein, UniProt O93659 1-217, looked up)
chain: MANKEEIIAKAKEAITDFDDELAEEVANEALAAGIDPVELIEKGFTAGMEEVGEKFGQGELFLPHVLAAAEAMNSGIKVITPEMEKRKSQTKSLGTVAIGTIEGDIHSIGKDIVASMLNIAGFKVVDLGRDVPINTFVEKVKELKPQVVASSALMTTTMVNQIQIEEQLKEAGVRDQVKTMVGGAPVTQDWADKIGADIYGESANDAVAKVKAALNV
notes: Trimethylamine corrinoid protein MttC of M. barkeri; mttC gene cloned by a strategy similar to that for mttB1; helical cap domain residues 2-84, connecting loop 85-95, core domain 96-216; No step that removes the tag is described; also called MttC-His6; cognate corrinoid protein; source: Methanosarcina acetivorans C2A transformed with plasmid pTC311, purified (HiTrap HP column, Mono-Q HR 10/10)

Tests used:
MttB = target: T1, MttB (Methanosarcina barkeri, UniProt O93658); experiment: X-ray crystal structure, […] Å; assay type: binding; details: covalent; adduct on imine carbon of Pyl334; crystal soaked with saturated sodium dithionite, pH 4.5
T1 construct: full length with C-terminal GGHHHHHH tag, contains pyrrolysine at 334 (amber codon); expressed in Methanosarcina acetivorans C2A; D3 homohexamer (trimer of dimers)

purified protein = substrate: CN(C)C; experiment: purified protein; assay type: biochemical, Methanosarcina barkeri; details: 30 µM Co(I)-MttC as methyl acceptor, RamA, 2 mM Ti(III)-citrate, 2.5 mM ATP, 2.5 mM MgCl2, phosphate pH 7.2, 37 °C, anaerobic
[1] = target: the molecule itself; experiment: crystal structure; MttB alone; vapor diffusion at 10 °C; 8 mg/mL MttB in 20 mM potassium phosphate pH 7.4, 500 mM NaCl, 240 mM imidazole, 20% glycerol; reservoir 4% MPD, 0.1 M citric acid pH 4.5; 2.5 Å
[2] = target: B3; experiment: crystal structure; MttB-MttC complex; hanging drops at 10 °C of MttB (3 mg/mL) and MttC (10 mg/mL) mixed with 18% PEG8000, 0.1 M citric acid pH 5, 1 M LiCl; crystals soaked with 12.5 mM N,N-dimethyl-hydroxylamine; 2.7 Å, space group P21; details: both partners purified

| Molecule | Km (purified protein) | kcat (purified protein) | also measured |
| --- | --- | --- | --- |
| O=S(O)O [sulfite] |  |  | X-ray crystal structure, 3.2 Å (MttB): addition of sulfite to the pyrrolysine imine carbon of MttB was observed |
| B1 | 49 ± 6 µM | 48 ± 2 turnovers per min |  |
| B2 | 75 ± 11 µM | 1.7 ± 0.1 turnovers per min |  |
| B3 |  |  | stoichiometry N [1]: 6 |
| B4 |  |  | binding result [2]: binds |

From paper PMC9842639, “Insights into pyrrolysine function from structures of a trimethylamine methyltransferase and its corrinoid protein complex” (Communications Biology, 2023)
